Measurements published in publication PMC9458469 (The Journal of Cell Biology, 2022).
Values belong to the molecule of their own block, whether it stands above or below them.

Experiments:
[1] = molecular target: Hsp-12.1 (purified) (C. elegans); assay: SEC
[2] = molecular target: the molecule itself; assay: SEC

- stoichiometry N [1]: 4 subunits
Molecule: Hsp-12.1 (purified) (natural protein)

B1: Hsp-16.1 (purified) (natural protein, C. elegans, UniProt P34696 1-145, looked up)
chain: MSLYHYFRPAQRSVFGDLMRDMAQMERQFTPVCRGSPSESSEIVNNDQKFAINLNVSQFKPEDLKINLDGHTLSIQGEQELKTEHGYSKKSFSRVILLPEDVDVGAVASNLSEDGKLSIEAPKKEAIQGRSIPIQQAPVEQKTSE
- stoichiometry N [2]: ~34 subunits
